US8840891 (RSR, dated 2014)
Like-named read-outs stand apart in the source and are kept apart here.

Legend:
Experiment in all cases: cell-based or functional assay
[1] = molecular target: TSHR with Tyr82 mutated to Alanine (human) (UniProt P16473)
[2] = molecular target: wild type human TSHR (human) (UniProt P16473)
[3] = molecular target: TSHR with Lys129 mutated to Alanine (human) (UniProt P16473)
[4] = molecular target: wild type human TSHR (human) (UniProt P16473); remark: listed apart in the source
[5] = molecular target: wild type human TSHR (human) (UniProt P16473); remark: listed apart in the source
[6] = molecular target: TSHR with Arg255 mutated to Alanine (human) (UniProt P16473)
[7] = molecular target: wild type human TSHR (human) (UniProt P16473); remark: listed apart in the source
[8] = molecular target: TSHR with Trp258 mutated to Alanine (human) (UniProt P16473)
[9] = molecular target: wild type human TSHR (human) (UniProt P16473); remark: listed apart in the source

5C9 IgG (antibody), sequence (VH): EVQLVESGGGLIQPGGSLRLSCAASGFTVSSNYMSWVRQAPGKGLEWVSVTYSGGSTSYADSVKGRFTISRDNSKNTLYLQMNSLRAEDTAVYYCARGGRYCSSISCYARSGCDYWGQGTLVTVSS
5C9 IgG (antibody), sequence (VL): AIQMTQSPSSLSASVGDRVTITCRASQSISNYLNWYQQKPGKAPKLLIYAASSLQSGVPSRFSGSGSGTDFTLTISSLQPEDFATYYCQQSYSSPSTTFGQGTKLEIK

Substance: 5C9 IgG (antibody)
- Mutated/wild type (%); 5C9 0.01 µg/mL + TSH [1]: 113%
- Mutated/wild type (%); 5C9 0.1 µg/mL + TSH [1]: 203%
- Mutated/wild type (%); 5C9 1.0 µg/mL + TSH [1]: 185%
- Mutated/wild type (%); 5C9 10 µg/mL + TSH [1]: 200%
- Mutated/wild type (%); 5C9 100 µg/mL + TSH [1]: 105%
- Mutated/wild type (%); 5C9 100 µg/mL only [1]: 494%
- cyclic AMP; 5C9 0.01 µg/mL + TSH (fmol/cell well) [1]: 15700
- cyclic AMP; 5C9 0.1 µg/mL + TSH (fmol/cell well) [1]: 12700
- cyclic AMP; 5C9 1.0 µg/mL + TSH (fmol/cell well) [1]: 2960
- cyclic AMP; 5C9 10 µg/mL + TSH (fmol/cell well) [1]: 1650
- cyclic AMP; 5C9 100 µg/mL + TSH (fmol/cell well) [1]: 1030
- cyclic AMP; 5C9 100 µg/mL only (fmol/cell well) [1]: 1430
- cyclic AMP; 5C9 0.01 µg/mL + TSH (fmol/cell well) [2]: 13900
- cyclic AMP; 5C9 0.1 µg/mL + TSH (fmol/cell well) [2]: 6250
- cyclic AMP; 5C9 1.0 µg/mL + TSH (fmol/cell well) [2]: 1600
- cyclic AMP; 5C9 10 µg/mL + TSH (fmol/cell well) [2]: 822
- cyclic AMP; 5C9 100 µg/mL + TSH (fmol/cell well) [2]: 978
- cyclic AMP; 5C9 100 µg/mL only (fmol/cell well) [2]: 289
- Mutated/wild type (%); 5C9 0.01 µg/mL + TSH [3]: 115%
- Mutated/wild type (%); 5C9 0.1 µg/mL + TSH [3]: 488%
- Mutated/wild type (%); 5C9 1.0 µg/mL + TSH [3]: 1270%
- Mutated/wild type (%); 5C9 10 µg/mL + TSH [3]: 2040%
- Mutated/wild type (%); 5C9 100 µg/mL + TSH [3]: 3240%
- Mutated/wild type (%); 5C9 100 µg/mL only [3]: 203%
- cyclic AMP; 5C9 0.01 µg/mL + TSH (fmol/cell well) [3]: 12200
- cyclic AMP; 5C9 0.1 µg/mL + TSH (fmol/cell well) [3]: 13300
- cyclic AMP; 5C9 1.0 µg/mL + TSH (fmol/cell well) [3]: 12800
- cyclic AMP; 5C9 10 µg/mL + TSH (fmol/cell well) [3]: 11200
- cyclic AMP; 5C9 100 µg/mL + TSH (fmol/cell well) [3]: 15900
- cyclic AMP; 5C9 100 µg/mL only (fmol/cell well) [3]: 217
- cyclic AMP; 5C9 0.01 µg/mL + TSH (fmol/cell well) [4]: 10500
- cyclic AMP; 5C9 0.1 µg/mL + TSH (fmol/cell well) [4]: 2710
- cyclic AMP; 5C9 1.0 µg/mL + TSH (fmol/cell well) [4]: 1010
- cyclic AMP; 5C9 10 µg/mL + TSH (fmol/cell well) [4]: 548
- cyclic AMP; 5C9 100 µg/mL + TSH (fmol/cell well) [4]: 491
- cyclic AMP; 5C9 100 µg/mL only (fmol/cell well) [4]: 107
- cyclic AMP; 5C9 0.01 µg/mL + TSH (fmol/cell well) [5]: 12400
- cyclic AMP; 5C9 0.1 µg/mL + TSH (fmol/cell well) [5]: 6690
- cyclic AMP; 5C9 1.0 µg/mL + TSH (fmol/cell well) [5]: 2750
- cyclic AMP; 5C9 10 µg/mL + TSH (fmol/cell well) [5]: 1220
- cyclic AMP; 5C9 100 µg/mL + TSH (fmol/cell well) [5]: 1570
- cyclic AMP; 5C9 100 µg/mL only (fmol/cell well) [5]: 260
- Mutated/wild type (%); 5C9 0.01 µg/mL + TSH [6]: 123%
- Mutated/wild type (%); 5C9 0.1 µg/mL + TSH [6]: 109%
- Mutated/wild type (%); 5C9 1.0 µg/mL + TSH [6]: 201%
- Mutated/wild type (%); 5C9 10 µg/mL + TSH [6]: 80%
- Mutated/wild type (%); 5C9 100 µg/mL + TSH [6]: 80%
- Mutated/wild type (%); 5C9 100 µg/mL only [6]: 775%
- cyclic AMP; 5C9 0.01 µg/mL + TSH (fmol/cell well) [6]: 8120
- cyclic AMP; 5C9 0.1 µg/mL + TSH (fmol/cell well) [6]: 4140
- cyclic AMP; 5C9 1.0 µg/mL + TSH (fmol/cell well) [6]: 1940
- cyclic AMP; 5C9 10 µg/mL + TSH (fmol/cell well) [6]: 692
- cyclic AMP; 5C9 100 µg/mL + TSH (fmol/cell well) [6]: 809
- cyclic AMP; 5C9 100 µg/mL only (fmol/cell well) [6]: 248
- cyclic AMP; 5C9 0.01 µg/mL + TSH (fmol/cell well) [7]: 6620
- cyclic AMP; 5C9 0.1 µg/mL + TSH (fmol/cell well) [7]: 3790
- cyclic AMP; 5C9 1.0 µg/mL + TSH (fmol/cell well) [7]: 966
- cyclic AMP; 5C9 10 µg/mL + TSH (fmol/cell well) [7]: 867
- cyclic AMP; 5C9 100 µg/mL + TSH (fmol/cell well) [7]: 1010
- cyclic AMP; 5C9 100 µg/mL only (fmol/cell well) [7]: 32
- Mutated/wild type (%); 5C9 0.01 µg/mL + TSH [8]: 34%
- Mutated/wild type (%); 5C9 0.1 µg/mL + TSH [8]: 19%
- Mutated/wild type (%); 5C9 1.0 µg/mL + TSH [8]: 43%
- Mutated/wild type (%); 5C9 10 µg/mL + TSH [8]: 30%
- Mutated/wild type (%); 5C9 100 µg/mL + TSH [8]: 37%
- Mutated/wild type (%); 5C9 100 µg/mL only [8]: 200%
- cyclic AMP; 5C9 0.01 µg/mL + TSH (fmol/cell well) [8]: 6620
- cyclic AMP; 5C9 0.1 µg/mL + TSH (fmol/cell well) [8]: 1940
- cyclic AMP; 5C9 1.0 µg/mL + TSH (fmol/cell well) [8]: 1130
- cyclic AMP; 5C9 10 µg/mL + TSH (fmol/cell well) [8]: 357
- cyclic AMP; 5C9 100 µg/mL + TSH (fmol/cell well) [8]: 484
- cyclic AMP; 5C9 100 µg/mL only (fmol/cell well) [8]: 423
- cyclic AMP; 5C9 0.01 µg/mL + TSH (fmol/cell well) [9]: 19500
- cyclic AMP; 5C9 0.1 µg/mL + TSH (fmol/cell well) [9]: 10500
- cyclic AMP; 5C9 1.0 µg/mL + TSH (fmol/cell well) [9]: 2620
- cyclic AMP; 5C9 10 µg/mL + TSH (fmol/cell well) [9]: 1190
- cyclic AMP; 5C9 100 µg/mL + TSH (fmol/cell well) [9]: 1320
- cyclic AMP; 5C9 100 µg/mL only (fmol/cell well) [9]: 211
